Assay results published in patent US20190345557.
Substitutions are numbered along the chain they refer to.

B1: Human full-length ARHGEF26 (wild-type) with N-terminal His-SUMO tag (protein)
chain: MDGESEVDFSSNSITPLWRRRSIPQPHQVLGRSKPRPQSYQSPNGLLITDFPVEDGGTLLAAQIPAQVPTASDSRTVHRSPLLLGAQRRAVANGGTASPEYRAASPRLRRPKSPKLPKAVPGGSPKSPANGAVTLPAPPPPPVLRPPRTPNAPAPCTPEEDLTGLTASPVPSPTANGLAANNDSPGSGSQSGRKAKDPERGLFPGPQKSSSEQKLPLQRLPSQENELLENPSVVLSTNSPAALKVGKQQIIPKSLASEIKISKSNNQNVEPHKRLLKVRSMVEGLGGPLGHAGEESEVDNDVDSPGSLRRGLRSTSYRRAVVSGFDFDSPTSSKKKNRMSQPVLKVVMEDKEKFSSLGRIKKKMLKGQGTFDGEENAVLYQNYKEKALDIDSDEESEPKEQKSDEKIVIHHKPLRSTWSQLSAVKRKGLSQTVSQEERKRQEAIFEVISSEHSYLLSLEILIRMFKNSKELSDTMTKTERHHLFSNITDVCEASKKFFIELEARHQNNIFIDDISDIVEKHTASTFDPYVKYCTNEVYQQRTLQKLLATNPSFKEVLSRIESHEDCRNLPMISFLILPMQRVTRLPLLMDTICQKTPKDSPKYEVCKRALKEVSKLVRLCNEGARKMERTEMMYTINSQLEFKIKPFPLVSSSRWLVKRGELTAYVEDTVLFSRRTSKQQVYFFLFNDVLIITKKKSEESYNVNDYSLRDQLLVESCDNEELNSSPGKNSSTMLYSRQSSASHLFTLTVLSNHANEKVEMLLGAETQSERARWITALGHSSGKPPADRTSLTQVEIVRSFTAKQPDELSLQVADVVLIYQRVSDGWYEGERLRDGERGWFPMECAKEITCQATIDKNVERMGRLLGLETNV
B2: Human full-length ARHGEF26 29Leu mutant (p.Val29Leu) with N-terminal His-SUMO tag (protein)
chain: B1 chain with V29L

Target: Human RhoG (residues 1-188) with N-terminal His-SUMO tag, pre-loaded with GDP, P84095
Sequence (P84095 1-188): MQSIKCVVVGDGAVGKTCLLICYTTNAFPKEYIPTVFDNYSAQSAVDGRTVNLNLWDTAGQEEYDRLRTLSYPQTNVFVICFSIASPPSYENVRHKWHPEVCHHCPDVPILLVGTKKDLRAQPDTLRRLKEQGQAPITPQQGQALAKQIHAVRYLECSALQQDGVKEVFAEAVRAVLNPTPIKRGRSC

Protein | nucleotide exchange activity (GTP-GDP nucleotide exchange assay, MANT-GTP fluorescence, 60 minutes)
B1 | we observed no significant difference in nucleotide exchange activity between wild-type and 29Leu mutant ARHGEF26
B2 | we observed no significant difference in nucleotide exchange activity between wild-type and 29Leu mutant ARHGEF26
